Data taken from paper PMC2213037.

Target: Syk tyrosine kinase (mouse (endogenous in NMuMG)) (UniProt P48025)
Test: co-IP

Sequence of Syk tyrosine kinase (mouse (endogenous in NMuMG)) (P48025 whole entry): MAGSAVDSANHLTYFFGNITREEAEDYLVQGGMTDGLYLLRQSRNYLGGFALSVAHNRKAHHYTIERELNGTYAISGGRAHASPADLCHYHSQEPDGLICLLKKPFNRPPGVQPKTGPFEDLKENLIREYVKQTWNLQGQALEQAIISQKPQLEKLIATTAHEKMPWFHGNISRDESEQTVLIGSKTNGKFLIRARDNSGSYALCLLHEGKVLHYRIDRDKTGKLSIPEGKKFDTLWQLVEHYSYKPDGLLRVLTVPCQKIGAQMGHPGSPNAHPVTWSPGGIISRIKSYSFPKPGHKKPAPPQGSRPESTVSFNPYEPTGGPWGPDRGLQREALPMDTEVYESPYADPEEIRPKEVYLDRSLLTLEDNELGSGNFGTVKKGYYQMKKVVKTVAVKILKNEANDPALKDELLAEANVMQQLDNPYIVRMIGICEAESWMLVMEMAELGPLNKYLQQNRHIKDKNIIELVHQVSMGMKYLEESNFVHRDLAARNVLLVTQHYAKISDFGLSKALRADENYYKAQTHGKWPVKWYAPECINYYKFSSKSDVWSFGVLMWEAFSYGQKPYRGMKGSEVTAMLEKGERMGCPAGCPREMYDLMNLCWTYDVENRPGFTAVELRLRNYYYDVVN
Sequence of MMTV Env surface unit (SU, gp52) (P03374 99-688): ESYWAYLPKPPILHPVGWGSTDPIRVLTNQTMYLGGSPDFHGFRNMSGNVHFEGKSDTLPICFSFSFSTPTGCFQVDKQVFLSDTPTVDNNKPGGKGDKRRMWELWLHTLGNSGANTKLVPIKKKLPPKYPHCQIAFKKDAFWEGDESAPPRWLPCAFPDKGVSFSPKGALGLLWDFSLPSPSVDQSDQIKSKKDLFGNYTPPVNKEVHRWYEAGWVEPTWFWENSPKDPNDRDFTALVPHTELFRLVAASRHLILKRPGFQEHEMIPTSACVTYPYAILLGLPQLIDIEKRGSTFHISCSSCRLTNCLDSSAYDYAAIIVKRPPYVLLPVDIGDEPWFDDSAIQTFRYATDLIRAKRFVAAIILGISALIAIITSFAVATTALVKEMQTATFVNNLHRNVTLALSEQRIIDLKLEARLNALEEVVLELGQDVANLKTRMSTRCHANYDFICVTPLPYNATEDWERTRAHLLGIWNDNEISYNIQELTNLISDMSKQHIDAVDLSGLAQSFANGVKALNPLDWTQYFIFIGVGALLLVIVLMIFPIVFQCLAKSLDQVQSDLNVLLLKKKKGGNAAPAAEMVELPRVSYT

With “MMTV Env surface unit (SU, gp52) (from UniProt P03374 99-454) (natural protein)” the percent of SU coprecipitated with Syk was < 34%.
